Tests used:
Assay in all cases: cell-based or functional assay
Arg(h) (human) = Arg(h) (human) (UniProt P42684)
BRK(h) (human) = BRK(h) (human) (UniProt Q13882)
BTK(R28H)(h) (human) = BTK(R28H)(h) (human) (UniProt Q06187)
CDK3/cyclinE(h) (human) = CDK3/cyclinE(h) (human) (UniProt Q00526)
CaMKIδ(h) (human) = CaMKIδ(h) (human) (UniProt Q8IU85)
EphA7(h) (human) = EphA7(h) (human) (UniProt Q15375)
Flt3(D835Y)(h) (human) = target: T1, Flt3(D835Y)(h) (human) (UniProt P36888)
T1 sequence (looked up): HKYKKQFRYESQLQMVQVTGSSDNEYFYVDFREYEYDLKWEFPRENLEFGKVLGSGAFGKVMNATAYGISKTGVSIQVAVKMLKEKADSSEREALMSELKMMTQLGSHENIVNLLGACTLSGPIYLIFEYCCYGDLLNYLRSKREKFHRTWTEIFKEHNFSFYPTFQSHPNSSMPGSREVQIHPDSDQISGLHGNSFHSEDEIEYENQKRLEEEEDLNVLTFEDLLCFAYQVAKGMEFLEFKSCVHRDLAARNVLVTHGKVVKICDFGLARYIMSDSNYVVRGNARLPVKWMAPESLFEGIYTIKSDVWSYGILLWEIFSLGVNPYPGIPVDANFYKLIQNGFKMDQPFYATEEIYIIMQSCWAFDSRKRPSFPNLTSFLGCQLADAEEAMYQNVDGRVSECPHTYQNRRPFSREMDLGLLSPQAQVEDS

[1] = target: IGF-1R(h), activated (human) (UniProt P08069)
IKKβ(h) (human) = target: T2, IKKβ(h) (human) (UniProt O14920)
T2 sequence (looked up): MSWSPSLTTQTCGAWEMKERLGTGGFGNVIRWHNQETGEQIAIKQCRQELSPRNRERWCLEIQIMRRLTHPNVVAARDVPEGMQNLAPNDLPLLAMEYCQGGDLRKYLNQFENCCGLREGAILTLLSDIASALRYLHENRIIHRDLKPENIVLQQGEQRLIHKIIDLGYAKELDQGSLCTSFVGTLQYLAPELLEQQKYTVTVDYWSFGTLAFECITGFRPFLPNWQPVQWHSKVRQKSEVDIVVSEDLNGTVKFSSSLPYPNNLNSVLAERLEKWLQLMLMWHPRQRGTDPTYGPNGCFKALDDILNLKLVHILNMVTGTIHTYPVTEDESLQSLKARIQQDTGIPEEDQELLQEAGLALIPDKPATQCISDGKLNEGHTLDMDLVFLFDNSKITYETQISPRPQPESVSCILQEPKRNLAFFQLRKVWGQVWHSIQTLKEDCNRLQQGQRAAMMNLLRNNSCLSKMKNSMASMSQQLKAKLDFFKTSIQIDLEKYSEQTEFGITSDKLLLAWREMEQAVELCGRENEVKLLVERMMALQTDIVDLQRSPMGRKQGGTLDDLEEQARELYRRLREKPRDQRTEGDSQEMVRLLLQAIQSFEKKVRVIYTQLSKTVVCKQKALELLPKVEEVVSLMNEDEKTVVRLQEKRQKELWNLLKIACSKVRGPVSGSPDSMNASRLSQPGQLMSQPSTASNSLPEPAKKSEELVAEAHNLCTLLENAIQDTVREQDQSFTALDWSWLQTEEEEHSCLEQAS

JNK3(h) (human) = JNK3(h) (human) (UniProt P53779)
JNK3(h) (human), sequence (P53779 whole entry): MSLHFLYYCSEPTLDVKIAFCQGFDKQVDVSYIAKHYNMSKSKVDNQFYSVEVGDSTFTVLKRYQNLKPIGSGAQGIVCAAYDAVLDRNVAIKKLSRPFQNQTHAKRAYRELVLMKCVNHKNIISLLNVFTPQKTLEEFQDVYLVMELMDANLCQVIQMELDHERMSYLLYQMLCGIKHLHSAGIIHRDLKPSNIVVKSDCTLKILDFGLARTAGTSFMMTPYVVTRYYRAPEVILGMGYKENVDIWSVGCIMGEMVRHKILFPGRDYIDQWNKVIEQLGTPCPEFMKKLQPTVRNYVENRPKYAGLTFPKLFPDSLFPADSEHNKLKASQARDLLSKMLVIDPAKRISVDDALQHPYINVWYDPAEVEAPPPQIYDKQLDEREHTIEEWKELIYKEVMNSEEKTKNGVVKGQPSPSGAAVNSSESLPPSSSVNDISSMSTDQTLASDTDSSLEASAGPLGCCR

MST2(h) (human) = target: T3, MST2(h) (human) (UniProt Q13188)
T3 sequence (looked up): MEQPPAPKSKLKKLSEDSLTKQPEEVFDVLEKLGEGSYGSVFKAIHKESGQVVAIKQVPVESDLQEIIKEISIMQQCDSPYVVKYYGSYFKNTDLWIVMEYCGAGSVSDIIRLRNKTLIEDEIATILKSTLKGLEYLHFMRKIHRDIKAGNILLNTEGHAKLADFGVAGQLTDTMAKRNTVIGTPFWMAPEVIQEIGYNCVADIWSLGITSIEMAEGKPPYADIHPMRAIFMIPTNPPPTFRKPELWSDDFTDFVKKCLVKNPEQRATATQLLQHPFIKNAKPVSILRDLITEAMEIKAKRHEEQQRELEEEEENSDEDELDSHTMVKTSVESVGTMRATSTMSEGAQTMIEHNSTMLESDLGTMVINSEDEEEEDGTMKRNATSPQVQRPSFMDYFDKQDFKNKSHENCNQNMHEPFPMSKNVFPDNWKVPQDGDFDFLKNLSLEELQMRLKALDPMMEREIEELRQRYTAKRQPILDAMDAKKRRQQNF

Met(D1246N)(h) (human) = Met(D1246N)(h) (human) (UniProt P08581)
PKBβ(h) (human) = PKBβ(h) (human) (UniProt P31751)
PKBβ(h) (human), sequence (P31751 whole entry): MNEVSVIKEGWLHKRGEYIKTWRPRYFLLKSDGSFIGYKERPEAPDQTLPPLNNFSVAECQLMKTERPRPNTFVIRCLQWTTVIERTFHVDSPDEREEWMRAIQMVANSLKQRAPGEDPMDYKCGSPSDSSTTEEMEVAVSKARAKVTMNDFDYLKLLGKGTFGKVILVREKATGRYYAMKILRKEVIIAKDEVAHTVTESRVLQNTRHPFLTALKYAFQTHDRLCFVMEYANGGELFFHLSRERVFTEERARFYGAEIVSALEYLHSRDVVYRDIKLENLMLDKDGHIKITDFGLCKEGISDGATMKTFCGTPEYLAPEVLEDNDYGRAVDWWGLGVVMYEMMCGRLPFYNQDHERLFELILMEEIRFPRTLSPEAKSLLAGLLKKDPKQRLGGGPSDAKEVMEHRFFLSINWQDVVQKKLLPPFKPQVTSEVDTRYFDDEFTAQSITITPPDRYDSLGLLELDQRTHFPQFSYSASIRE

PKG1α(h) (human) = PKG1α(h) (human) (UniProt Q13976)
PRK2(h) (human) = PRK2(h) (human) (UniProt Q16513)
PRK2(h) (human), sequence (Q16513 501-984 limits assumed): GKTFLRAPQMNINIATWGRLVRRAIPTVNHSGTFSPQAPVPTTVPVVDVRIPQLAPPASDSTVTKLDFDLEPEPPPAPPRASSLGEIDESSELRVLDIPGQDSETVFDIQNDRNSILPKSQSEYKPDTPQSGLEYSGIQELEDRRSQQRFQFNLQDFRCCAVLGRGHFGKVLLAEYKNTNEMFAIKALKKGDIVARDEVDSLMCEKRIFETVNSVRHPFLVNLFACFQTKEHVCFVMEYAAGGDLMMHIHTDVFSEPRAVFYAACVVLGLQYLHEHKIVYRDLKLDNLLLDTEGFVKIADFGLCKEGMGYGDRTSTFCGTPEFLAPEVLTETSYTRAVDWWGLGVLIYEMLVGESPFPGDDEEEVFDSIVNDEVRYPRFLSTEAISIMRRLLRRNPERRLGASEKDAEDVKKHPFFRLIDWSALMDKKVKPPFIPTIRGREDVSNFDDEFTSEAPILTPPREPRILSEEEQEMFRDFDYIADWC

Pim-2(h) (human) = Pim-2(h) (human) (UniProt Q9P1W9)
Pim-2(h) (human), sequence (Q9P1W9 whole entry): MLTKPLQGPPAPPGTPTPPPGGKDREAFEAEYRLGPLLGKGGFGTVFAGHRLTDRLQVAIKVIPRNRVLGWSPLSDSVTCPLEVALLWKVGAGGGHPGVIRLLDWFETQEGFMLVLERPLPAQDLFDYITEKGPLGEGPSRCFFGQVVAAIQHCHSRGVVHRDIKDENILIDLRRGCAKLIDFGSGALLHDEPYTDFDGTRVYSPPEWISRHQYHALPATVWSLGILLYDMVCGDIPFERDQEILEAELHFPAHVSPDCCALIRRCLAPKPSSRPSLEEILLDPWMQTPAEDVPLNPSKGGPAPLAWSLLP

Plk3(h) (human) = Plk3(h) (human) (UniProt Q9H4B4)
Plk3(h) (human), sequence (Q9H4B4 58-340 limits assumed): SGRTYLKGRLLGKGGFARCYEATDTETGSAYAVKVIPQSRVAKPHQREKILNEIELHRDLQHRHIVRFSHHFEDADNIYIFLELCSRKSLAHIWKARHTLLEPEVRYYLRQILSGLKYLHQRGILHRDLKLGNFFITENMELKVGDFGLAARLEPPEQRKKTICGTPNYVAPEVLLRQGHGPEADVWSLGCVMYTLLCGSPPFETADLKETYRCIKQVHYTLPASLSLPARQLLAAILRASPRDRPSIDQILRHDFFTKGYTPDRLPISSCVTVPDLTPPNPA

Pyk2 (h) (human) = Pyk2 (h) (human) (UniProt Q14289)
Pyk2 (h) (human), sequence (Q14289 whole entry): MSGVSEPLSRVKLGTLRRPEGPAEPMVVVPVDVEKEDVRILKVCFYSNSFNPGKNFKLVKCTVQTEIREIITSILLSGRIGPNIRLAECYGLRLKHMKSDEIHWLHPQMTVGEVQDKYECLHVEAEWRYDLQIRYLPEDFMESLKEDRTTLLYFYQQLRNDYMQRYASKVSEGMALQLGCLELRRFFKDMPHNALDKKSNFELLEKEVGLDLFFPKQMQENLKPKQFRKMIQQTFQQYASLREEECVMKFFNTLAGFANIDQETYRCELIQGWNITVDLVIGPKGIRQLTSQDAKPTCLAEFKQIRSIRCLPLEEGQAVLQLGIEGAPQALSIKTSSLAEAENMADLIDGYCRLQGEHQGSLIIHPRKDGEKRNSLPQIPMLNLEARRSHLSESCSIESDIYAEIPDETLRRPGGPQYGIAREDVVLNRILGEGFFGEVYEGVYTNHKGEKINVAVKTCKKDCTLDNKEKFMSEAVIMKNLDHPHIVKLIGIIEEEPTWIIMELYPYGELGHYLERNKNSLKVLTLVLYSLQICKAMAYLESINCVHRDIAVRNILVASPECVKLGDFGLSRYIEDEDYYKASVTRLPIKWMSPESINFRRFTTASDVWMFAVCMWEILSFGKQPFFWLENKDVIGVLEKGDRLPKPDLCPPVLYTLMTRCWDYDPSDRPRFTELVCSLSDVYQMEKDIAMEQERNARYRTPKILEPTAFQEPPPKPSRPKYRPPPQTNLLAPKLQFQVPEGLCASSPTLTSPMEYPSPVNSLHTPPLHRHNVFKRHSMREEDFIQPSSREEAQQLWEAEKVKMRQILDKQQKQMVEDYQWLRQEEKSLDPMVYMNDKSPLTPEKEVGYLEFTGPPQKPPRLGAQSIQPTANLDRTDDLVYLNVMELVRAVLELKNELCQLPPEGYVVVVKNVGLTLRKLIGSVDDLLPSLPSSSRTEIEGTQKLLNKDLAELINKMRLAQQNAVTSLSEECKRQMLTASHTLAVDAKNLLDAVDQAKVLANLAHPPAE

Src(T341M)(h) (human) = Src(T341M)(h) (human) (UniProt P12931)
TrkB(h) (human) = TrkB(h) (human) (UniProt Q16620)
TrkB(h) (human), sequence (Q16620 455-822 limits assumed): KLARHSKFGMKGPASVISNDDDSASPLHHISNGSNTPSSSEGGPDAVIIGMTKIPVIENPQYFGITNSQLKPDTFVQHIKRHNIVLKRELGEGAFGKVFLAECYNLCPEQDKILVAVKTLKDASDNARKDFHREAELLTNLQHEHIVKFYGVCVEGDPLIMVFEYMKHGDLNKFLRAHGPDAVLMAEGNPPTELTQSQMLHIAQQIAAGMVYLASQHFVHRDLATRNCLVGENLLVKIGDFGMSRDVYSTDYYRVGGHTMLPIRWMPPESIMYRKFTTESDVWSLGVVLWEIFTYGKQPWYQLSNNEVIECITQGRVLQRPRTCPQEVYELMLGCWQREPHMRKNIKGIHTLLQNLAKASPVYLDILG

mTOR/FKBP12(h) (human) = mTOR/FKBP12(h) (human) (UniProt P42345)

Arg(h) (human), sequence (P42684 38-1182 limits assumed): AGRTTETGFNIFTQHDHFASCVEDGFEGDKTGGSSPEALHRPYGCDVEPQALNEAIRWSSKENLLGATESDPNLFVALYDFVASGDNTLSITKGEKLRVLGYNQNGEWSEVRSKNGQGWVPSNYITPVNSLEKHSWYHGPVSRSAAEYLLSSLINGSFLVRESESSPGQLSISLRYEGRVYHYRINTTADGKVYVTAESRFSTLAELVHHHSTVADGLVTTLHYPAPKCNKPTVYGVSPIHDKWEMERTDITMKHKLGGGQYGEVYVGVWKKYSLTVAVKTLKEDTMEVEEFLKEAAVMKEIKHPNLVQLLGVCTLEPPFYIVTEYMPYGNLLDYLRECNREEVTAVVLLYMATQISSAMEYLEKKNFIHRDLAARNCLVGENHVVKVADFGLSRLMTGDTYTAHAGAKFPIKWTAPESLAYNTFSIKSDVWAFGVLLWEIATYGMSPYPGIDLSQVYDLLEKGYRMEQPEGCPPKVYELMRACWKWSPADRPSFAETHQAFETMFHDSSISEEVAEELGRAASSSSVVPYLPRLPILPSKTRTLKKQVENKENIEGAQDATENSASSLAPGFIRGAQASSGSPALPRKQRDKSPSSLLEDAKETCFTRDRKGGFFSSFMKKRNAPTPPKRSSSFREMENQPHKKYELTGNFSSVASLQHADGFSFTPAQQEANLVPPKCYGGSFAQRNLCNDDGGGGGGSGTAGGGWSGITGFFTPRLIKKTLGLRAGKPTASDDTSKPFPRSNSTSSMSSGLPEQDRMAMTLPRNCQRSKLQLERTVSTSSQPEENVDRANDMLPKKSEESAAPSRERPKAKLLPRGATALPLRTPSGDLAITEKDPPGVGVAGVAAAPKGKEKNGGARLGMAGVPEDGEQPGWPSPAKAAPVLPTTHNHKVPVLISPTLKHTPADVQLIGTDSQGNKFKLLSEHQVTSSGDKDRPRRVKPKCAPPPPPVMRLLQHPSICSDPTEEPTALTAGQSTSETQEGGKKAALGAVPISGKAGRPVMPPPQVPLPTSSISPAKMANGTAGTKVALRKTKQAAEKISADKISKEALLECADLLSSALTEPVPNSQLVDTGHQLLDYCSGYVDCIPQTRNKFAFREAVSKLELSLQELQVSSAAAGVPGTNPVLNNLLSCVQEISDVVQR
CaMKIδ(h) (human), sequence (Q8IU85 whole entry, stated change not applied): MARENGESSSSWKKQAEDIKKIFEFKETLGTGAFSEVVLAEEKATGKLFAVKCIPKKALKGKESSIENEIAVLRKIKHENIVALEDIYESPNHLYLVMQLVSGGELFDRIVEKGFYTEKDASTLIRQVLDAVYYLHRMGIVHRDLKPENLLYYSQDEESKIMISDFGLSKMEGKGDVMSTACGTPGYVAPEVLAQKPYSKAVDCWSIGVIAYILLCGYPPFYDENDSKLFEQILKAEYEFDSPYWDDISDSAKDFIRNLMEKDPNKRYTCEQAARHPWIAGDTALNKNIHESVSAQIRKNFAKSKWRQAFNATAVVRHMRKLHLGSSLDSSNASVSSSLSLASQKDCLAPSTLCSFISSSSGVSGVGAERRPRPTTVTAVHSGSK

- % activity, 100 µM (Arg(h) (human)): 22%
- % activity, 100 µM (BRK(h) (human)): 41%
- % activity, 100 µM (BTK(R28H)(h) (human)): 10%
- % activity, 100 µM (CDK3/cyclinE(h) (human)): 8%
- % activity, 100 µM (CaMKIδ(h) (human)): 0%
- % activity, 100 µM (EphA7(h) (human)): 189%
- % activity, 100 µM (Flt3(D835Y)(h) (human)): 65%
- % activity, 100 µM [1]: 45%
- % activity, 100 µM (IKKβ(h) (human)): 71%
- % activity, 100 µM (JNK3(h) (human)): 171%
- % activity, 100 µM (MST2(h) (human)): 2%
- % activity, 100 µM (Met(D1246N)(h) (human)): 90%
- % activity, 100 µM (PKBβ(h) (human)): 21%
- % activity, 100 µM (PKG1α(h) (human)): 25%
- % activity, 100 µM (PRK2(h) (human)): 7%
- % activity, 100 µM (Pim-2(h) (human)): 46%
- % activity, 100 µM (Plk3(h) (human)): 122%
- % activity, 100 µM (Pyk2 (h) (human)): 46%
- % activity, 100 µM (Src(T341M)(h) (human)): 59%
- % activity, 100 µM (TrkB(h) (human)): 12%
- inhibition of kinase activity at 100 µM (TrkB(h) (human)): > 65%
- % activity, 100 µM (mTOR/FKBP12(h) (human)): 140%
Substance: MMI-0500 (peptide)

— patent US20140072613A1, “Compositions and Methods for Treating Cutaneous Scarring” (priority 2012, published 2014)
